The values that follow come from the nanobody polyreactivity screen of Harvey et al. (2022).

This series can be described thus: yeast display, Sf9 membrane polyspecificity reagent, FACS + sequencing; frameworks hold sequencing errors. In short, it runs like this:
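Genes from sorted yeast were amplified by colony PCR, read by MiSeq 2 × 250 sequencing and filtered on CDR length. These cells carried a synthetic nanobody library in Saccharomyces cerevisiae BJ5465 and were sorted by FACS into low and high (top ~1%) gates on anti-HA and streptavidin fluorescence. Polyreactivity is labelled according to the gate of origin.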
In the case of “QVQLVESGGRLVQAGGILRLSCAASGSTFDKNAMGWYRQAPGKERQLVAAINNGGGTTYYADSVKGRFTISRDNAKNTVYLQMNSLKPEDTAVYYCAAVGKAYWSDYQYRYYYWGQGTQVTVSS”, the “polyreactivity (PSR sort gate)” value was “low polyreactivity”.

Turning to “QVQLVESGGRLVQAGGRLRLRSAASGFTFSRNAMGWYRQAPGKERELVAAIDSGGSTDYAVSVKGRFTISRDNAKNTVYLQMNSLKPADTAVYYCAKASSATRYVQLRQDYDYWGQGTQVTVSS”, the “polyreactivity (PSR sort gate)” value was “low polyreactivity”.

For “QVQLVESGGRLVQAGGSLRISRAASGFTFPSYTMGWYRQAPGKERELVAAITSSGGNTYYADSVKGRFTISRDNAKNTVYLQMNSLKPEVTAVYYCATVSVRWPSNDHVRYDYWGQGTQVTVSS”, the “polyreactivity (PSR sort gate)” value is “low polyreactivity”.

On to “QVQLVESGGRLVQAGGSLRLICADSGGIFGRYAMGWSRQAHGKERELVAAISKNGDSTYYAYSVKGRFTISRDNAKNTVYLKMNSLKPEDTAVYYCAAAKYRPKYGKNDYLGQGTQVTVSS”, for which the “polyreactivity (PSR sort gate)” value is “low polyreactivity”.

As for “QVQLVESGGRLVQAGGSLRLRCAASGFIFGWYTMGWYRQAPGKERELVASISRSGGSTYYADSVKGRFTISRDNEKNTVYVQMNSLKPEDTAVSYCAKRSLVDAHGYWGQGTQVTVSS”, the “polyreactivity (PSR sort gate)” value is recorded as “high polyreactivity”.

For the sequence “QVQLVESGGRLVQAGGSLRLSCAASGFIFAYNAMGWYRQAPGKERELVAAISWSGGSTYYADSVKGRFTISRDNAKNTVYLQMNSLKPEDTAVSYCNKYIRYPFKRYGYWGQGTQVTVSS”, the “polyreactivity (PSR sort gate)” value was “high polyreactivity”.

For “QVQLVESGGRLVQAGGSLRLSCAASGFIFGTYAMGWYRQAPGKEREFVAAITRSGSSTYYADSVKGRFTISRDNAKNTVYLQMNSLKPEDTAVYYCAADLTRGRFRYYYWGQGTQVTVSS”, the “polyreactivity (PSR sort gate)” value was “high polyreactivity”.

For “QVQLVESGGRLVQAGGSLRLSCAASGFIFVGNDMAWYRQAPGKVRELVAAISSGGTTNYADSVKGRFTNSRDNAKNTVYLQMNSLKPEDTAVYDCAADYDYRQGYDSVHLDYWGQGTQVTVSS”, the “polyreactivity (PSR sort gate)” value was “low polyreactivity”.

As to “QVQLVESGGRLVQAGGSLRLSCAASGFIFYSYDMGWYRQAPGKERELVAAIDSRGVNTYYADSVKGRFTISRDNAKNTVYLQMNSLKPEDTAVYYCAAEVVYPVYEYDYWGQGTQVTVSS”, the “polyreactivity (PSR sort gate)” value is listed as “low polyreactivity”.

As to “QVQLVESGGRLVQAGGSLRLSCAASGFIISFNAMGWYRQATGKERELVATISGGGGSTYYADSVKGRFTISRDKAKNTVYLQMKSLKPEDTAVYYCAKSYRYRGDYWGQGTQVTVSS”, the “polyreactivity (PSR sort gate)” value is listed as “high polyreactivity”.

With “QVQLVESGGRLVQAGGSLRLSCAASGFTFGAYAMGWYRQAPGKERELVATIRYSGDSTYYADSVKGRFTISRDNAKNTVYLQMNSLKPEDTAVSSCAAYSTEGGGSPDWFESFDYWGQGTQVTVSS”, the “polyreactivity (PSR sort gate)” value is recorded as “low polyreactivity”.

On to “QVQLVESGGRLVQAGGSLRLSCAASGFTFLYYAMGWYRQAPGKERELVATITRTSRTYYADSVKGRFTISRDNAKNTVYLQMNSLKPEDTAVYYCAADTPYLRRRLGMDYWGQGTQVTVSS”, for which the “polyreactivity (PSR sort gate)” value was “high polyreactivity”.

Consider “QVQLVESGGRLVQAGGSLRLSCAASGGTFPTNAMGWYTQAPGKERELVAAITSSGVRTYYADSVKGRFTISRDNAKNTVYLQMNSLKPEDTAVYYCNAVTRYVRLTDDDYWGQGSQVTVSS”, for which the “polyreactivity (PSR sort gate)” value is “high polyreactivity”.

Turning to “QVQLVESGGRLVQAGGSLRLSCAASGIIFFYYTIGWSRQAPGKERELVAAISSGGGTYYADSVKGRFTISRDNAKNTVYLQMNSLKPEDTAVYYCAAVRYSSSSRGGYWGQGTQVTVSS”, the “polyreactivity (PSR sort gate)” value is on record as “high polyreactivity”.

Take “QVQLVESGGRLVQAGGSLRLSCAASGITFIDYAMGWYRQAPGKERELVAAIRYSAGSTYYADSVKGRFTISRDNAKNTVYLQMNSLKPEDTAVYYCARTTPSGRQYRRYDYWGQGTQVTVSS”: the “polyreactivity (PSR sort gate)” value is on record as “low polyreactivity”.

On to “QVQLVESGGRLVQAGGSLRLSCAASGITFYLNAMGWYRQAPGKERELVADITVSGGSTYYADSVKGRFTISRDNAKNTVYLQMNSLKPEDTAVYYCAADLTISYSQEYYYWGQGNQVTVSS”, for which the “polyreactivity (PSR sort gate)” value is recorded as “low polyreactivity”.
